Article PMC4522657, “Identification of a DYRK1A Inhibitor that Induces Degradation of the Target Kinase using Co-chaperone CDC37 fused with Luciferase nanoKAZ” (Scientific Reports, 2015)
One block for each substance: values may come before it.

Tests used:
CDC37 (CDC37-nanoKAZ) = CDC37 (CDC37-nanoKAZ) (UniProt Q16543); experiment: anti-FLAG plate capture, luciferase-fusion luminescence; details: reference: wild type
HSP90β (nanoKAZ-HSP90β) = HSP90β (nanoKAZ-HSP90β) (UniProt P08238); experiment: as above; details: reference: wild type

fold change (CDC37 (CDC37-nanoKAZ)): 17
fold change (HSP90β (nanoKAZ-HSP90β)): 10
Substance: DYRK1A (from UniProt Q13627) K188R kinase-dead (no autophosphorylation)

fold change (CDC37 (CDC37-nanoKAZ); sites Y111): 1.4
Substance: DYRK1A (from UniProt Q13627) Y111F

fold change (CDC37 (CDC37-nanoKAZ); sites Y145,Y147): 2.4
Substance: DYRK1A (from UniProt Q13627) Y145F/Y147F

fold change (CDC37 (CDC37-nanoKAZ); sites Y159): 8.4
Substance: DYRK1A (from UniProt Q13627) Y159F

fold change (CDC37 (CDC37-nanoKAZ); sites Y319,Y321): 8
fold change (HSP90β (nanoKAZ-HSP90β); sites Y319,Y321): 3.8
Substance: DYRK1A (from UniProt Q13627) Y319F/Y321F
